# B1: porcine lipase: Commercial porcine pancreatic lipase, positive control of the lipase/esterase assays (protein, UniProt P00591 1-450, looked up)
# Pancreatic triacylglycerol …: SEVCFPRLGCFSDDAPWAGIVQRPLKILPWSPKDVDTRFLLYTNQNQNNYQELVADPSTITNSNFRMDRKTRFIIHGFIDKGEEDWLSNICKNLFKVESVNCICVDWKGGSRTGYTQASQNIRIVGAEVAYFVEVLKSSLGYSPSNVHVIGHSLGSHAAGEAGRRTNGTIERITGLDPAEPCFQGTPELVRLDPSDAKFVDVIHTDAAPIIPNLGFGMSQTVGHLDFFPNGGKQMPGCQKNILSQIVDIDGIWEGTRDFVACNHLRSYKYYADSILNPDGFAGFPCDSYNVFTANKCFPCPSEGCPQMGHYADRFPGKTNGVSQVFYLNTGDASNFARWRYKVSVTLSGKKVTGHILVSLFGNEGNSRQYEIYKGTLQPDNTHSDEFDSDVEVGDLQKVKFIWYNNNVINPTLPRVGASKITVERNDGKVYDFCSQETVREEVLLTLNPC
# Experiments:
# [1] = Rhodamine lipase assay with crude plant leaf extracts; format: biochemical; details: 0.025 ml droplets (crude leaf extract or 20 U porcine lipase); 30 C overnight
# Source text: For transient expression assays of bovine PGE, the plant transformation and expression vectors constructed in Example 12 were moved into A. tumefaciens strain GV2260 by either electroporation or bacterial conjugation as described (Kapila et al., 1997). GV2260 carrying pIPG745 or pIPG746 was used for transient expression in tobacco, pepper, tomato, citrus, geranium, and rice plants as described (Kapila et al. 1997; Duan et al., 1999; Wroblewski et al. 2005). Cultures of Agrobacterium harboring the constructs of interest were grown in minimal medium in the presence of acetosyringone to induce the Agrobacterium vir genes. The optical density of the cultures was maintained at 0.008 for pepper and tomato and at 0.25 for citrus, geranium and rice. Strain GV2260 was flooded into healthy, young, fully expanded leaves of vigorous plants into the apoplastic space through open stomata by injection using a tuberculin syringe without a needle, flooding entire leaves. […]
# Two lipase/esterase activity assays were used. […] Lower intensity fluorescence was also observed from the empty vector controls. In order to quantify the difference, 0.2 ml of the rhodamine olive oil suspension was mixed with 0.1 ml of plant extract and allowed to incubate at 30 C for 24 hrs. Fluorescence was measured using a Tecan Spectraluor Plus spectrofluorimeter (excitation=360 nm; emission=535 nm).
# [2] = Phenol red lipase/esterase assay with crude plant leaf extracts; format: biochemical
# Source text: In this Figure, the first tube on the left (labeled “Buffer”) contains phenol red buffer and Tween 20 (the dark red color appears dark in this black and white figure); the second tube to the right (“SL”) has 4 Units of Sigma porcine pancreatic lipase added (the bright yellow color appears light); the third tube to the right (labeled “731”) has a twenty microliter droplet of a crude tomato plant leaf extract from leaves inoculated 4 days earlier with GV2260 carrying “empty” (ie., no lipase gene) expression vector pIPG731 (the dark red color appears dark), and the fourth tube to the right (“768 WI”) has a twenty microliter droplet of crude tomato plant leaf extract from leaves inoculated four days earlier with GV2260 carrying cloned bovine pregastric esterase expressed in pIPG768 (the bright yellow color appears light). Tomato leaf tissue particles may be seen floating in the third and fourth tubes to the right. […] The photo was taken 16 hrs. after start of the assay.
# For transient expression assays of bovine PGE, the plant transformation and expression vectors constructed in Example 12 were moved into A. tumefaciens strain GV2260 by either electroporation or bacterial conjugation as described (Kapila et al., 1997). GV2260 carrying pIPG745 or pIPG746 was used for transient expression in tobacco, pepper, tomato, citrus, geranium, and rice plants as described (Kapila et al. 1997; Duan et al., 1999; Wroblewski et al. 2005). Cultures of Agrobacterium harboring the constructs of interest were grown in minimal medium in the presence of acetosyringone to induce the Agrobacterium vir genes. The optical density of the cultures was maintained at 0.008 for pepper and tomato and at 0.25 for citrus, geranium and rice. Strain GV2260 was flooded into healthy, young, fully expanded leaves of vigorous plants into the apoplastic space through open stomata by injection using a tuberculin syringe without a needle, flooding entire leaves. After 3-4 days, two grams of leaf tissue (fresh weight), was ground in liquid nitrogen to a fine powder, and 0.5 ml of ice cold phosphate buffered saline (PBS; 137 mM NaCl, 2.7 mM KCl, 10 mM potassium phosphate, pH 7.4) was added and mixed thoroughly at 4 C. The mixture was mixed on an orbital shaker at 4 C for 30 minutes, and plant debris was pelleted at 10,000×g for 15 minutes and discarded. The supernatants from these crude plant leaf extracts were directly used in lipase/esterase assays.
# The second activity assay was a phenol red lipase/esterase assay using tributyrin, olive oil or Tween 20 as substrates as described by Singh et al. (2006), except that liquid medium, rather than solidified agar medium, was used. Twenty microliter droplets of crude plant leaf extracts and the positive control were placed in the tributyrin/phenol red medium containing tributyrin, olive oil or Tween 20 and incubated at 30 C overnight. […] Transient expression of bovine PGE was confirmed in tobacco, pepper, tomato, citrus, geranium, and rice plants.
# For transient expression assays, the plant transformation and expression vectors constructed in Example 15 were moved into A. tumefaciens strain GV2260 by electroporation. GV2260 carrying pIPG823 was used for transient expression in tobacco and geranium plants exactly as described in Example 20. The supernatants from crude plant leaf extracts were directly used in phenol red lipase/esterase assays using tributyrin and olive oil as substrates exactly as described in Example 20.
molecule,measurement,setting,value
B1,Fluorescence on rhodamine olive oil agar plates,[1],Bright fluorescent spots
same,Phenol red indicator tube color (FIG. 2),"[2]; Tween 20 substrate, 16 hrs after start, tomato leaf extract or 4 Units lipase",bright yellow
same,Phenol red indicator color change,"[2]; substrates tributyrin and olive oil, extracts of tobacco and geranium leaves, nematode esterase construct",color change from red to bright yellow
same,Phenol red indicator color change,"[2]; substrates tributyrin, olive oil or Tween 20, twenty microliter droplets, 30 C overnight, bovine PGE constructs",color change from red to bright yellow
same,Substrates utilized in phenol red lipase/esterase assay,[2]; transiently plant-expressed enzyme or positive control,"utilized all three substrates: tributyrin, olive oil and Tween 20"

# Source: patent US20080235824A1, “Use of Esterase Genes as Selectable Markers for Transforming Plant Cells” (priority 2006, published 2008)
